# System: yeast gat1 mutant
# Experiment: Lipidomic analysis of phospholipids from yeast gat1 transformed with TpGPAT or GAT1, fed EPA or DHA
# Assay type: cell-based, Saccharomyces cerevisiae
# Conditions: tandem mass spectrometer lipidomics
# Description: FIG. 4 graphically depicts the results of the lipidomic analysis (fatty acid composition) of the lipids from yeast gat1 mutants transformed with either TpGPAT1 or GAT1. Yeast cells expressing TpGPAT or yeast GAT1 were fed with EPA (20:5) or DHA (22:6) upon induction of the genes. Total lipids from the yeast cells were extracted and subjected to lipidomic analysis using a tandem mass spectrometer. The results are presented as the molar ratio of EPA- or DHA-containing phospholipids (PC, PE, PS, PI) in the total phospholipids.
# To further determine the role of TpGPAT in the incorporation of VLGPUFAs into glycerolipids, yeast gat1 strain transformed with TpGPAT or GAT1 under the control of the GAL1 promoter was grown in the presence of EPA (20:5) or DHA (22:6) upon induction of the genes. Phospholipids were extracted and subjected to lipidomic analysis using a tandem mass spectrometer (testing conducted by the Kansas Lipidomics Research Center). […] It was thus concluded that TpGPAT has a role in controlling PUFA accumulation in glycerolipid.
molecule,measurement,setting,value
"GAT1: yeast (S. cerevisiae) glycerol-3-phosphate acyltransferase gene GAT1 expressed under GAL1 promoter as comparator (protein, listed as Saccharomyces cerevisiae) MSAPAADHNAAKPIPHVPQASRRYKNSYNGFVYNIHTWLYDVSVFLFNILFTIFFREIKVRGAYNVPEVGVPTILVCAPHANQFIDPALVMSQTRLLKTSAGKSRSRMPCFVTAESSFKKRFISFFGHAMGGIPVPRIQDNLKPVDENLEIYAPDLKNHPEIIKGRSKNPQTTPVNFTKRFSAKSLLGLPDYLSNAQIKEIPDDETIILSSPFRTSKSKVVELLTNGTNFKYAEKIDNTETFQSVFDHLHTKGCVGIFPEGGSHDRPSLLPIKAGVAIMALGAVAADPTMKVAVVPCGLHYFHRNKFRSRAVLEYGEPIVVDGKYGEMYKDSPRETVSKLLKKITNSLFSVTENAPDYDTLMVIQAARRLYQPVKVRLPLPAIVEINRRLLFGYSKFKDDPRIIHLKKLVYDYNRKLDSVGLKDHQVMQLKTTKLEALRCFVTLIVRLIKFSVFAILSLPGSILFTPIFIICRVYSEKKAKEGLKKSLVKIKGTDLLATWKLIVALILAPILYVTYSILLIILARKQHYCRIWVPSNNAFIQFVYFYALLVFTTYSSLKTGEIGVDLFKSLRPLFVSIVYPGKKIEEIQTTRKNLSLELTAVCNDLGPLVFPDYDKLATEIFSKRDGYDVSSDAESSISRMSVQSRSRSSSIHSIGSLASNALSRVNSRGSLTDIPIFSDAKQGQWKSEGETSEDEDEFDEKNPAIVQTARSSDLNKENSRNTNISSKIASLVRQKREHEKKE",Molar percentage of DHA in phospholipids,yeast gat1 fed DHA (22:6),0.235%
same,Molar percentage of EPA in phospholipids,yeast gat1 fed EPA (20:5),2.025%
